In patent publication US20220315554A1, “COMPOUNDS COMPRISING A […] LIGAND AND USE THEREOF” (priority 2019, published 2022) one finds Percentage inhibition (%) data, which are given here for two substances.

Assay [1] concerns the target T1, A20 (Homo sapiens (Human)) (UniProt P21580).
T1 sequence: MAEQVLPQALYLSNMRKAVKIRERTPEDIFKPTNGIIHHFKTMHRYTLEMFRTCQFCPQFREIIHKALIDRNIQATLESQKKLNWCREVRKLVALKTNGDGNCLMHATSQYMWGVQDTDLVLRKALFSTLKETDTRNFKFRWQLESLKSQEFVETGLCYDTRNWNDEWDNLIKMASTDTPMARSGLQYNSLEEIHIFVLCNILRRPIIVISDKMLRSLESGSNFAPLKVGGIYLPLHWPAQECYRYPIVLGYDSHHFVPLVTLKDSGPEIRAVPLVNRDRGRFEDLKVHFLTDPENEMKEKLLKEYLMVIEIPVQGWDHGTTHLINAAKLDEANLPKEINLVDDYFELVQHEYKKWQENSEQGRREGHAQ

Assay [2] concerns the target Ataxin3 (Homo sapiens (Human)) (UniProt P54252).
Assay [3] has as its target Beta secretase (Homo sapiens (Human)) (UniProt P56817).
The target in assay [4] is T2, Caspase-3 (Homo sapiens (Human)) (UniProt P42574).
T2 sequence: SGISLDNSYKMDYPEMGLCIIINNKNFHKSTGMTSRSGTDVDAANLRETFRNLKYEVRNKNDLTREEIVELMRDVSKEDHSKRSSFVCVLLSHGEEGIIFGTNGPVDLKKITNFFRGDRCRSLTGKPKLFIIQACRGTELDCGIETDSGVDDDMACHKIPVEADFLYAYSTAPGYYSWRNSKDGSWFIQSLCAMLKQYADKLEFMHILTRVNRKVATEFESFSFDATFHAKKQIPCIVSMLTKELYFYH

For assay [5], the target named is T3, Caspase-7 (Homo sapiens (Human)) (UniProt P55210).
T3 sequence: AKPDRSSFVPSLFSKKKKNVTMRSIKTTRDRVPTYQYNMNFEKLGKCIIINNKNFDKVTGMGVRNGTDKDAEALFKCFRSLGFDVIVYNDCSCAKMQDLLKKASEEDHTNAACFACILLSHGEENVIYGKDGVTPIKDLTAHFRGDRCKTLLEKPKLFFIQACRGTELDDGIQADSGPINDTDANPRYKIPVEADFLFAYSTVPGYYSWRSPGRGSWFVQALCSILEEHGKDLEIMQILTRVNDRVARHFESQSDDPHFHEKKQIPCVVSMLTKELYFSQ

Assay [6] deals with Caspase-8 (Homo sapiens (Human)) (UniProt Q14790).
Assay [7] deals with Caspase-9 (Homo sapiens (Human)) (UniProt P55211).
In assay [8] the target is Cathepsin B (Homo sapiens (Human)) (UniProt P07858).
Assay [9] addresses T4, Cathepsin F (Homo sapiens (Human)) (UniProt Q9UBX1).
T4 sequence: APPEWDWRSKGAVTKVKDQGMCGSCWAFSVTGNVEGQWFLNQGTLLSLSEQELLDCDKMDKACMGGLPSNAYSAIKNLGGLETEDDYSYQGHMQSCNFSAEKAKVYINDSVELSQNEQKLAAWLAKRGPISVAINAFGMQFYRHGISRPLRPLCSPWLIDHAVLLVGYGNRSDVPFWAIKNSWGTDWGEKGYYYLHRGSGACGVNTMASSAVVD

Assay [10] has as its target Cathepsin L (Homo sapiens (Human)) (UniProt P07711).
For assay [11], the target named is Cathepsin S (Homo sapiens (Human)) (UniProt P25774).
Assay [12] deals with DPP7 (Homo sapiens (Human)) (UniProt Q9UHL4).
The target in assay [13] is DPP8 (Homo sapiens (Human)) (UniProt Q6V1X1).
Assay [14] addresses DPP9 (Homo sapiens (Human)) (UniProt Q86TI2).
Assay [15] has as its target T5, Deubiquitinase OTUD6B (Homo sapiens (Human)) (UniProt Q8N6M0).
T5 sequence: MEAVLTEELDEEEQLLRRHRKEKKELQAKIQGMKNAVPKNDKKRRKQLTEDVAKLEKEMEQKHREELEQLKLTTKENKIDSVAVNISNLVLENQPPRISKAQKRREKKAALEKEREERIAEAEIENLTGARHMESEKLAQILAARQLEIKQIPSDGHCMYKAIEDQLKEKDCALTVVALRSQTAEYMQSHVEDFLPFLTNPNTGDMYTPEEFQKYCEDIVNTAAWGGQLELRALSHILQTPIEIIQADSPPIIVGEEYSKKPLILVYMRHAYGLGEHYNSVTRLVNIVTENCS

Assay [16] addresses Matrix metalloprotease 2 (Homo sapiens (Human)) (UniProt P08253).
In assay [17] the target is Matrix metalloprotease1 (Homo sapiens (Human)) (UniProt P03956).
Assay [18] has as its target T6, Renin (Homo sapiens (Human)) (UniProt P00797).
T6 sequence: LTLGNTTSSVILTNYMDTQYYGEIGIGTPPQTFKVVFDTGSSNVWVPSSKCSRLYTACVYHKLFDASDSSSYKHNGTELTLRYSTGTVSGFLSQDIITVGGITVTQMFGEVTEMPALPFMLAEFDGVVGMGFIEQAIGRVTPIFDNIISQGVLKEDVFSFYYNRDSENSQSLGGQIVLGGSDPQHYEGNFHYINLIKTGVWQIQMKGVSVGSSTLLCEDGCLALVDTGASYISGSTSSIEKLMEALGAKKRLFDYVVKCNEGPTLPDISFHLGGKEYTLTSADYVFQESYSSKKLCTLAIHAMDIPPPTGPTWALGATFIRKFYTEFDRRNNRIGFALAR

Assay [19] deals with Ubiquitin carboxy-terminal hydrolase 5 (Homo sapiens (Human)) (UniProt P45974).
Assay [20] has as its target Ubiquitin carboxy-terminal hydrolase 7 (Homo sapiens (Human)) (UniProt Q93009).
Assay [21] deals with Ubiquitin carboxy-terminal hydrolase 8 (Homo sapiens (Human)) (UniProt P40818).
The target in assay [22] is Ubiquitin carboxy-terminal hydrolase L1 (Homo sapiens (Human)) (UniProt P09936).
For assay [23], the target named is T7, Ubiquitin carboxy-terminal hydrolase L3 (Homo sapiens (Human)) (UniProt P15374).
T7 sequence: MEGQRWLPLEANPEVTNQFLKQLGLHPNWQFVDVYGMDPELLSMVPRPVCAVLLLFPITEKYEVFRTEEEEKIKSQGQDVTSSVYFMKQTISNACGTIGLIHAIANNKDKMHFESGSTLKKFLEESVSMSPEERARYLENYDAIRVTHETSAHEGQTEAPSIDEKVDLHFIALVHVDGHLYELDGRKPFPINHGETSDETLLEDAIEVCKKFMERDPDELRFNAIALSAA

Chain of Ataxin3 (Homo sapiens (Human)) (P54252 whole entry): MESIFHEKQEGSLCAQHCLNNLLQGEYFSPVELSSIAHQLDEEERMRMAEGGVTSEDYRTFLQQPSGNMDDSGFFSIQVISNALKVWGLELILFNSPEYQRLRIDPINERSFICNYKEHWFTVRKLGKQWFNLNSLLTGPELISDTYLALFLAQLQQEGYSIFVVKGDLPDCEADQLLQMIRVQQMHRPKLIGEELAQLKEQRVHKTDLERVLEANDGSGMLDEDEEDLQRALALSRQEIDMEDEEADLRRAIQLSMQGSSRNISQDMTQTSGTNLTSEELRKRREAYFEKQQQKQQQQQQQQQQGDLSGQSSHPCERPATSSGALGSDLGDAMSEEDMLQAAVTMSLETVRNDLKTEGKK
Chain of Caspase-8 (Homo sapiens (Human)) (Q14790 217-479 limits assumed): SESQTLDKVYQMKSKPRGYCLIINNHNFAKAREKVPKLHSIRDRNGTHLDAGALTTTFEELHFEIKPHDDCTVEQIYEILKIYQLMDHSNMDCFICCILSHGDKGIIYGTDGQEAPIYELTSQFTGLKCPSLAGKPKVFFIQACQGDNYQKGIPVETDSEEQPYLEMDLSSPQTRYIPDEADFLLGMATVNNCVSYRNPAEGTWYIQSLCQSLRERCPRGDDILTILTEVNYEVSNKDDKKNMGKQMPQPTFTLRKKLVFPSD
Chain of Matrix metalloprotease 2 (Homo sapiens (Human)) (P08253 110-660): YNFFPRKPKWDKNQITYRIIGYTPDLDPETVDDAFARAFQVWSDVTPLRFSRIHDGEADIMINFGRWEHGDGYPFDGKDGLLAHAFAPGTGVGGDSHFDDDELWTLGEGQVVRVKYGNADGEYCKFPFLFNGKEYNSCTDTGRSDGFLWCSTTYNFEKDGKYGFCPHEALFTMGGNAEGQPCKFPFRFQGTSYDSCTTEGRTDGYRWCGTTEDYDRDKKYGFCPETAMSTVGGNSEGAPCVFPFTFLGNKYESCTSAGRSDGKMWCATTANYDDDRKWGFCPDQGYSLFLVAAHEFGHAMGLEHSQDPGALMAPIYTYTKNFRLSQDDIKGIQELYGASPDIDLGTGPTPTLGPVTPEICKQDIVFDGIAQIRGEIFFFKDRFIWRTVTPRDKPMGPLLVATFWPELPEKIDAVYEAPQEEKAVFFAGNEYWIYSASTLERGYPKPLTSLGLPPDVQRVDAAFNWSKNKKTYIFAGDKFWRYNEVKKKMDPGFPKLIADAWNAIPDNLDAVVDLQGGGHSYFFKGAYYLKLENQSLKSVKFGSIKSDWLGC
Chain of Caspase-9 (Homo sapiens (Human)) (P55211 whole entry): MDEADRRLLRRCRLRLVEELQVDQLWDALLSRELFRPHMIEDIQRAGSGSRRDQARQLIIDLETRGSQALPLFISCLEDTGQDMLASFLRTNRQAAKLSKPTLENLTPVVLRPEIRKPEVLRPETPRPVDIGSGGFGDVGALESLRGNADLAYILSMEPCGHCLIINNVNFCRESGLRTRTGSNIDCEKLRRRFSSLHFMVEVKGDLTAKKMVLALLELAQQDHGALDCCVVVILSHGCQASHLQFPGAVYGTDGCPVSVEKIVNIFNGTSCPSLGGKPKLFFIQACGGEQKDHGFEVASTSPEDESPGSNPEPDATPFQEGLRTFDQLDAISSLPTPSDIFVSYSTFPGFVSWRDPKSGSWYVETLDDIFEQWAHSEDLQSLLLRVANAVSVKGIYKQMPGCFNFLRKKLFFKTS
Chain of Ubiquitin carboxy-terminal hydrolase 5 (Homo sapiens (Human)) (P45974 whole entry): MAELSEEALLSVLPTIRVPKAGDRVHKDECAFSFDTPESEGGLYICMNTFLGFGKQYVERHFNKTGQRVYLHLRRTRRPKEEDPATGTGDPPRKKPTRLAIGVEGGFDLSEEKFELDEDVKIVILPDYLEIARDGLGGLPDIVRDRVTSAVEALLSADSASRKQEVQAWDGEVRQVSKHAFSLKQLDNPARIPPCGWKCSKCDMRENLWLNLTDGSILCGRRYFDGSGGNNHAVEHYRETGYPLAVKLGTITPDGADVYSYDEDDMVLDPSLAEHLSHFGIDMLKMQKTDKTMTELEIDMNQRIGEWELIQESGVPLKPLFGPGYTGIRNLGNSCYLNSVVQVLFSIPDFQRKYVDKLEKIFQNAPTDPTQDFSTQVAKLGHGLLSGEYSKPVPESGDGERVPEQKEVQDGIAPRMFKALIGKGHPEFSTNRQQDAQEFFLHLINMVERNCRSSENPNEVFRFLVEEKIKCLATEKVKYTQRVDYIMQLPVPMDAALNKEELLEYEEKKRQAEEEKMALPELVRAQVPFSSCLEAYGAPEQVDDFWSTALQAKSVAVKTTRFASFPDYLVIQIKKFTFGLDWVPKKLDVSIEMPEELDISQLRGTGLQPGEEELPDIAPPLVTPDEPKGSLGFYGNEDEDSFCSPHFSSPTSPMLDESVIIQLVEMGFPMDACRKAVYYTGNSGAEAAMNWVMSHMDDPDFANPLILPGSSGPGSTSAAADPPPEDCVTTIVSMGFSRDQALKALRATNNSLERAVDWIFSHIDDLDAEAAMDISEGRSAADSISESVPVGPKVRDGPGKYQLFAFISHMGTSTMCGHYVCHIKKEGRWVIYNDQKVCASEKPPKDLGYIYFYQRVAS
Chain of Matrix metalloprotease1 (Homo sapiens (Human)) (P03956 100-469): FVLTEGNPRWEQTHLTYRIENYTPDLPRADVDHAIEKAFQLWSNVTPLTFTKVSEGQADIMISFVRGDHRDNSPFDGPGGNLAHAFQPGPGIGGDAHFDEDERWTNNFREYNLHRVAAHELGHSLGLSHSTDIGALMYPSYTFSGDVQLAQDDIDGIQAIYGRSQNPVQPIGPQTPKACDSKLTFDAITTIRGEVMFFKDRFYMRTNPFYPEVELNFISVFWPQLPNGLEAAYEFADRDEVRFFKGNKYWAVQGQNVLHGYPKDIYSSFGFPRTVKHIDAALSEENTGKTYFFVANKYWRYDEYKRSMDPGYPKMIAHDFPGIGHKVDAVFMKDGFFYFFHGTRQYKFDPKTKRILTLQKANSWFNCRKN

Take “Hex-[Cys(tMeBn(DOTA-AET))-Pro-Pro-Thr-Gln-Phe-Cys]-OH (peptide)”: the Percentage inhibition (%) at 10 µM in assay [1] is 0%; in assay [2], -1%; in assay [3], 7%; in assay [4] it was -1%; in assay [5], -7%; in assay [6], -3%. The Percentage inhibition (%) at 10 µM in assay [7] was -2%; in assay [8], 2%; in assay [9] it was -25%; in [10], -6%; in assay [11], -23%; in assay [12], -7%. For the same substance, the Percentage inhibition (%) at 10 µM in assay [13] is 11%; in [14] it was -5%; in assay [15], 0%; in [16], -2%; in [17], -7%; in [18], -1%. Besides, the Percentage inhibition (%) at 10 µM in assay [19] was -2%; in assay [20] it was 1%; in assay [21], 1%; in assay [22] it was 4%; in [23] it was 0%.
In the case of “Hex-[Cys(tMeBn(DOTA-PP))-Pro-Pro-Thr-Gln-Phe-Cys]-Asp-NH2 (peptide)”, the Percentage inhibition (%) at 10 µM is -4% in [1]; 10% in assay [2]; -5% in [3]; -2% in assay [4]; -3% in assay [5]; 0% in assay [6]. Moreover, the Percentage inhibition (%) at 10 µM in [7] was 8%; in assay [8], 36%; in assay [9], -24%; in assay [10], 6%; in assay [11] it was 18%; in assay [12] it was -3%. Besides, the Percentage inhibition (%) at 10 µM in assay [13] was determined as 5%; in assay [14] it was 0%; in [15] it was 15%; in assay [16], 3%; in [17] it was 2%; in [18], 3%. Also, the Percentage inhibition (%) at 10 µM in assay [19] was found to be 46%; in [20], 5%; in [21], 6%; in assay [22] it was 4%; in assay [23] it was 14%.
